Columns and labels:
[1] = target: myc-tagged wild type Raf-1 (UniProt P04049)
Raf-CR3[D338E339] = Raf-CR3[D338E339] (UniProt P04049)
[2] = target: Raf-CR3 (wild type), recombinant Raf-1 catalytic fragment, calmodulin binding protein fusion (UniProt P04049)
[3] = target: recombinant His-tagged mouse PAK3 from Sf9 cells (UniProt Q61036)
[4] = target: myc-tagged wild type Raf-1 (UniProt P04049); experiment: cell-based or functional assay
[5] = target: Raf-CX (Raf modified to translocate to the plasma membrane independently of Ras) (UniProt P04049); experiment: cell-based or functional assay

p37, purified 37-kD Raf-1 serine 338/339 protein kinase from rat spleen (truncated PAK3), sequence (chain, as listed by the source): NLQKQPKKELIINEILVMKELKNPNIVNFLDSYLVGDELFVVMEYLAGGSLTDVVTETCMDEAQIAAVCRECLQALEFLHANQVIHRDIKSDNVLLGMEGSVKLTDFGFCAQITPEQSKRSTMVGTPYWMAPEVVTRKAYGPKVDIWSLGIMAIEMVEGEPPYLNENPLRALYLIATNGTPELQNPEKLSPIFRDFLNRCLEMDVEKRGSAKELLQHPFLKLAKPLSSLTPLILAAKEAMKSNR
recombinant His-tagged mouse PAK3 from Sf9 cells, sequence (Q61036 other isoform, or with tags, fused parts or gaps): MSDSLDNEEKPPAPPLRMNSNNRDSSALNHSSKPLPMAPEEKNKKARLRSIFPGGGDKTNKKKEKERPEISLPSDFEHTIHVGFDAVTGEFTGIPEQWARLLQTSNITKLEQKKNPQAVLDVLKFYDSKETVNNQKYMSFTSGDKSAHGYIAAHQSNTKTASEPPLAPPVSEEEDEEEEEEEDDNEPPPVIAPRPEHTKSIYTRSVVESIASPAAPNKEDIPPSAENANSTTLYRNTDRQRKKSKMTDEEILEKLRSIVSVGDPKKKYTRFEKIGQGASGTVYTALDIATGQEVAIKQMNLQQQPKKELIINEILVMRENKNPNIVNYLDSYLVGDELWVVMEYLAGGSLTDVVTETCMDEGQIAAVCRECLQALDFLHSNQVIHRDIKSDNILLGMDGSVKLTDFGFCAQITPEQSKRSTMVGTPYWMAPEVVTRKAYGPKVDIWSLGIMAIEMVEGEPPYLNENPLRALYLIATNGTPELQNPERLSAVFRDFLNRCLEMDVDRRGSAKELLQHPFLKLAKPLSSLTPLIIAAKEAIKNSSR

## constitutively active HA-tagged PAK3[S91,A93,A95]
[1]
  increase in the amount of phosphorylated serine 338 (immunoprecipitation with phosphoserine 338-specific antibody, 9E10 blot): 2.5 and 6.5-fold increases in the amount of phosphorylated serine 338

## p37, purified 37-kD Raf-1 serine 338/339 protein kinase from rat spleen (truncated PAK3)
Raf-CR3[D338E339]
  phosphorylation of Raf-CR3 (32P, SDS-PAGE, autoradiography): failed to significantly phosphorylate the Raf-CR3[D338E339] mutant
[2]
  phosphorylation of Raf-CR3 (32P, SDS-PAGE, autoradiography): The purified kinase phosphorylated the wild type Raf-CR3
  share of incorporated 32P in the serine 338/339 tryptic peptides: Over 95% of the 32P incorporated within the phosphorylated Raf-CR3 was associated with the serine 338/339 tryptic peptides
Raf-1 (331-345) peptide
  specific activity (Raf-1 peptide phosphorylation): extremely high specific activity (19,500 pmol/min/mg)

## GST-Cdc42 charged with GTPγS
[3]
  stimulation of the Raf-1 peptide and Raf-CR3 serine 338/339 kinase activity of PAK3: stimulated up to six-fold by co-incubation with GST-Rac-GTPγS or GST-Cdc42-GTPγS

## dominant negative HA-tagged PAK3[R278] (enzyme)
[4]
  reduction of the Ras[V12]-inducible activation of Raf-1 in COS-7 cells: > 50%
[5]
  reduction of the intrinsic Raf kinase activity in COS-7 cells: > 70%
